Data as given in US20250152746A1, “BASE EDITING OF ANGPTL3 AND METHODS OF USING SAME FOR TREATMENT OF DISEASE” (Verve Therapeutics, Inc., priority 2020, published 2025).

B1: GA079: PCSK9 gRNA for ABE8.8 splice site editing, Human/Cyno (nucleic acid)
guide: CTTTCCAGGTCATCACAGTTGTTTTAGAGCTAGAAATAGCAAGTTAAAATAAGGCTAGTCCGTTATCAACTTGAAAAAGTGGCACCGAGTCGGTGCTTTT
modifications: listed as RNA; modified_base 1: mod_base = OTHER; note = 2'-O-Methyl-cytidine phosphorothioate; modified_base 2: mod_base = OTHER; note = 2'-O-Methyl-uridine phosphorothioate; modified_bas
notes: PCSK9 gRNA for ABE8.8 splice site editing, Human/Cyno
B2: GA072: PCSK9 gRNA for ABE8.8 splice site editing, Human/Cyno (nucleic acid)
guide: GGTGGCTCACCAGCTCCAGCGTTTTAGAGCTAGAAATAGCAAGTTAAAATAAGGCTAGTCCGTTATCAACTTGAAAAAGTGGCACCGAGTCGGTGCTTTT
modifications: 2'-O-methyl at 1, 2, other sugars, backbone and T or U not given here; further chemistry not fully specified
notes: as for B1
B3: GA080: PCSK9 gRNA for ABE8.8 splice site editing, Human/Cyno (nucleic acid)
guide: CCTTTCCAGGTCATCACAGTGTTTTAGAGCTAGAAATAGCAAGTTAAAATAAGGCTAGTCCGTTATCAACTTGAAAAAGTGGCACCGAGTCGGTGCTTTT
modifications: 2'-O-methyl at 1, 2, other sugars and backbone not given here; further chemistry not fully specified
notes: as for B1
B4: GA088: PCSK9 gRNA for ABE8.8 splice site editing, Human/Cyno (nucleic acid)
guide: CCCAGGCTGCAGCTCCCACTGTTTTAGAGCTAGAAATAGCAAGTTAAAATAAGGCTAGTCCGTTATCAACTTGAAAAAGTGGCACCGAGTCGGTGCTTTT
modifications: 2'-O-methyl at 1, 2, other sugars and backbone not given here; further chemistry not fully specified
notes: as for B1
B5: GA081: PCSK9 gRNA for ABE8.8 splice site editing, Human/Cyno (nucleic acid)
guide: TTTCCAGGTCATCACAGTTGGTTTTAGAGCTAGAAATAGCAAGTTAAAATAAGGCTAGTCCGTTATCAACTTGAAAAAGTGGCACCGAGTCGGTGCTTTT
modifications: listed as RNA; modified_base 1: mod_base = OTHER; note = 2'-O-Methyl-uridine phosphorothioate; modified_base 2: mod_base = OTHER; modified_base
notes: as for B1
B6: GA077: PCSK9 gRNA for ABE8.8 splice site editing, Human/Cyno (nucleic acid)
guide: UCCCAGGCCTGGAGTTTATTGTTTTAGAGCTAGAAATAGCAAGTTAAAATAAGGCTAGTCCGTTATCAACTTGAAAAAGTGGCACCGAGTCGGTGCTTTT
modifications: 2'-O-methyl at 1, 2, other sugars and backbone not given here; further chemistry not fully specified
notes: as for B1
B7: GA087: PCSK9 gRNA for ABE8.8 splice site editing, Human/Cyno (nucleic acid)
guide: UCACCTGCTCCTGAGGGGCCGTTTTAGAGCTAGAAATAGCAAGTTAAAATAAGGCTAGTCCGTTATCAACTTGAAAAAGTGGCACCGAGTCGGTGCTTTT
modifications: 2'-O-methyl at 1, 2, other sugars and backbone not given here; further chemistry not fully specified
notes: as for B1

Legend:
[1] = test system: ANGPTL3; details: phase I clinical trials; cited from earlier work
[2] = test system: PCSK9 gene splice site; type: cell-based, human
Outline: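 Primary human and cynomolgus hepatocytes co-transfected with gRNA plus ABE8.8 mRNA (1:1 by weight) or given LNP formulations across dilutions; genomic DNA harvested 3 days after transfection. Base editing at the PCSK9 intron 1 splice donor quantified by amplicon next-generation sequencing.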

[3] = test system: PCSK9 gene splice site; type: cell-based, cynomolgus monkey
Description: PCSK9 gRNAs were co-transfected with an equivalent amount of in vitro transcribed ABE8.8 mRNA MA002 (1:1 ratio by weight) into primary hepatocytes and processed as described in detailed methods. In one set of experiments, extracted genomic DNA was analyzed for base editing of the target splice site with next-generation sequencing of PCR amplicons generated around the target sites. Samples were prepared using the Nextera XT DNA library preparation kit (Illumina) according to the manufacturer's protocol. Briefly, two rounds of PCR were performed first to amplify the region of interest and second to add DNA sequences required for next generation sequencing and sample identification to the initial product. The final amplicon was sequenced on the Illumina MiSeq instrument according to the manufacturer's protocol.
Similarly, three gRNAs (GA098, GA099, GA100) were synthesized matching the 5′-[…]-3′ (SEQ ID NO: 15) (GA091) human protospacer sequence, as well as four gRNAs (GA067/GA101, GA102, GA103, GA347) matching the 5′-[…]-3′ (SEQ ID NO: 14) (GA067) cynomolgus protospacer sequence, but with more extensive chemical modifications of various kinds (Table 1). GA066 and GA095 contain the same chemical composition and modification pattern, as do GA067 and GA101 with one another. […] Each of the gRNAs described in Table 8, with an equivalent amount of in vitro transcribed ABE8.8 mRNA MA002 (1:1 ratio by weight), were co-transfected into primary human hepatocytes and primary cynomolgus hepatocytes via MessengerMax reagent, using various dilutions to assess for editing activity at different concentrations of test article. Three days after transfection, genomic DNA was harvested from the hepatocytes, and then assessed for base editing of the target splice site with next-generation sequencing.
Modifications and/or truncations to either the spacer or tracr portion of the gRNA was assessed by alteration of the GA066 spacer (5′-[…]-3′ (SEQ ID NO: 13)) (Table 12). […] Each of the gRNAs with an equivalent amount of in vitro transcribed ABE8.8 mRNA (1:1 ratio by weight) were co-transfected into primary human hepatocytes and primary cynomolgus hepatocytes and processed as described in detailed methods.
Lipid nanoparticles containing ABE8.8 mRNA and a gRNA matching the human/cynomolgus 5′-[…]-3′ (SEQ ID NO: 13) sequence (GA066) that targets the splice donor at the 5′ end of PCSK9 intron 1 were formulated at a 1:1 ratio by weight. The LNPs were administered to primary human hepatocytes and primary cynomolgus hepatocytes, using various dilutions to assess for editing activity at different concentrations of test article. LNP containing Cas9 mRNA and a gRNA matching a protospacer sequence in another gene, ANGPTL3, as a positive control was used for these experiments.
Plating, culturing, and transfection of primary hepatocytes. Primary human liver hepatocytes (PHH) and primary cynomolgus liver hepatocytes (PCH) from BioIVT were cultured per the manufacturer's protocol. Briefly, primary human hepatocytes and primary cyno hepatocytes were obtained as frozen aliquots from BioIVT.

Molecule	lipid lowering effect [1]	Human Primary Hepatocytes-splice site editing % 1250 ng/mL [2]	Human Primary Hepatocytes-splice site editing % 2500 ng/mL [2]	Human Primary Hepatocytes-splice site editing % 5000 ng/mL [2]	Cynomolgous Primary Hepatocytes-splice site editing % 1250 ng/mL [3]	Cynomolgous Primary Hepatocytes-splice site editing % 2500 ng/mL [3]	Cynomolgous Primary Hepatocytes-splice site editing % 5000 ng/mL [3]
evinacumab	significant lipid lowering effect						
B1		2.2%	4.9%	6.5%	0.6%	0.5%	0.5%
B2		1.5%	2.2%	2.5%	2.3%	1.7%	2.2%
B3		0.4%	0.5%	0.6%	7.1%	8.8%	7.0%
B4		3.6%	6.2%	7.2%	17.0%	23.0%	24.8%
B5		4.3%	6.1%	8.3%	0.3%	0.3%	0.3%
B6		2.8%	5.7%	6.0%	4.1%	5.7%	5.4%
B7		1.0%	1.4%	1.9%	0.2%	0.2%	0.2%
